Measurements from article PMC6472409, “Dishevelled-3 conformation dynamics analyzed by FRET-based biosensors reveals a key role of casein kinase 1” (Nature Communications, 2019).

B1: DVL3 S268A/S311A (protein, UniProt Q92997 1-716, looked up, variant S268A S311A)
Segment polarity protein …: MGETKIIYHLDGQETPYLVKLPLPAERVTLADFKGVLQRPSYKFFFKSMDDDFGVVKEEISDDNAKLPCFNGRVVSWLVSAEGSHPDPAPFCADNPSELPPPMERTGGIGDSRPPSFHPHAGGGSQENLDNDTETDSLVSAQRERPRRRDGPEHATRLNGTAKGERRREPGGYDSSSTLMSSELETTSFFDSDEDDSTSRFSSSTEQSSASRLMRRHKRRRRKQKVSRIERSSSFSSITDSTMSLNIITVTLNMEKYNFLGISIVGQANERGDGGIYIGSIMKGGAVAADGRIEPGDMLLQVNEINFENMANDDAVRVLREIVHKPGPITLTVAKCWDPSPRGCFTLPRSEPIRPIDPAAWVSHTAAMTGTFPAYGMSPSLSTITSTSSSITSSIPDTERLDDFHLSIHSDMAAIVKAMASPESGLEVRDRMWLKITIPNAFIGSDVVDWLYHNVEGFTDRREARKYASNLLKAGFIRHTVNKITFSEQCYYIFGDLCGNMANLSLHDHDGSSGASDQDTLAPLPHPGAAPWPMAFPYQYPPPPHPYNPHPGFPELGYSYGGGSASSQHSEGSRSSGSNRSGSDRRKEKDPKAGDSKSGGSGSESDHTTRSSLRGPRERAPSERSGPAASEHSHRSHHSLASSLRSHHTHPSYGPPGVPPLYGPPMLMMPPPPAAMGPPGAPPGRDLASVPPELTASRQSFRMAMGNPSEFFVDVM
B2: DVL3 S268E/S311E (protein, UniProt Q92997 1-716, looked up, variant S268E S311E)
Segment polarity protein …: MGETKIIYHLDGQETPYLVKLPLPAERVTLADFKGVLQRPSYKFFFKSMDDDFGVVKEEISDDNAKLPCFNGRVVSWLVSAEGSHPDPAPFCADNPSELPPPMERTGGIGDSRPPSFHPHAGGGSQENLDNDTETDSLVSAQRERPRRRDGPEHATRLNGTAKGERRREPGGYDSSSTLMSSELETTSFFDSDEDDSTSRFSSSTEQSSASRLMRRHKRRRRKQKVSRIERSSSFSSITDSTMSLNIITVTLNMEKYNFLGISIVGQENERGDGGIYIGSIMKGGAVAADGRIEPGDMLLQVNEINFENMENDDAVRVLREIVHKPGPITLTVAKCWDPSPRGCFTLPRSEPIRPIDPAAWVSHTAAMTGTFPAYGMSPSLSTITSTSSSITSSIPDTERLDDFHLSIHSDMAAIVKAMASPESGLEVRDRMWLKITIPNAFIGSDVVDWLYHNVEGFTDRREARKYASNLLKAGFIRHTVNKITFSEQCYYIFGDLCGNMANLSLHDHDGSSGASDQDTLAPLPHPGAAPWPMAFPYQYPPPPHPYNPHPGFPELGYSYGGGSASSQHSEGSRSSGSNRSGSDRRKEKDPKAGDSKSGGSGSESDHTTRSSLRGPRERAPSERSGPAASEHSHRSHHSLASSLRSHHTHPSYGPPGVPPLYGPPMLMMPPPPAAMGPPGAPPGRDLASVPPELTASRQSFRMAMGNPSEFFVDVM

What was measured:
Wnt/β-catenin pathway = test: Dual Luciferase TopFlash/Renilla Reporter Assay; format: cell-based, human; conditions: Fig 8d
Procedure: Cells were transfected 24 h after seeding with 0.1 μg of Super8X TopFlash construct, 0.1 μg of Renilla luciferase construct, and 0.1 μg of corresponding plasmids per well for 6 h in a 24-well plate. As for the ECFP-DVL3 FIII wt stable cell lines, transfection was followed by 4 h induction of tetracycline (1 µg/ml) and 8 h treatment of CM:DMEM (1:1 ratio). For performing this assay, Promega Dual Luciferase assay kit (Promega, #E1910) was used according to the manufacturer’s instructions. Luminescence was measured by a Hidex Bioscan Plate Chameleon Luminometer. Results are depicted as the ratio of TopFlash and Renilla signal (TopFlash fold induction), which was normalized for each experiment to certain control column (normalized TopFlash fold induction). Data were analyzed by MS Excel 2007 and GraphPad Prism 6 and results were shown as the means ± S.D. (number of experiments indicated ad hoc).

[1] = test system: DVL3 membrane recruitment by FZD6 in HEK293 cells; test: FZD6-dependent membrane recruitment of DVL3, immunofluorescence; format: cell-based, human; set-up: key to Non-recruited (DVL3 membrane recruitment): number of cells out of 100 positive cells scored; conditions: Fig 8c
Source text: First, we analyzed the preferred subcellular localization of DVL3 (as introduced in Fig. 2c)[10],[14]. […] Next, we investigated if DVL3 conformation correlates with the capacity of DVL3 to be recruited by FZD6, a key Wnt receptor, to the plasma membrane. For this purpose, we co-expressed FZD6 and analyzed membrane recruitment of DVL3 in FZD6-positive cells by immunofluorescence. Individual cells were categorized as: not recruited (Fig. 8b, no DVL3 in the membrane), partially recruited (clear membrane as well as cytoplasmic localization), and fully recruited (predominantly plasma membrane localization, Fig. 8c, left). […] In the last readout we analyzed the capacity of DVL3 to activate downstream Wnt/β-catenin pathway monitored by TopFlash reporter assay (Fig. 8d). […] On the other hand, under conditions that favor the open conformation both activation as well as inhibition of the Wnt/β-catenin pathway was evident.
For immunofluorescence, cells were seeded (40,000 per well) on 24-well plates with gelatin-coated coverslips and transfected, as indicated, with 0.1 μg of each corresponding plasmid (0.3 μg of mCherry-FZD6) for 6 h. For western blotting and Dual Luciferase TopFlash/Renilla Reporter Assay, cells were seeded (60,000 per well) directly on 24-well plates with 0.1 μg of each corresponding plasmid (if not indicated otherwise) for 6 h. For coimmunoprecipitation, cells were seeded (4.4 × 10^6) on 10-cm dishes and transfected with 1 μg of each corresponding plasmid. The next day after seeding, cells were transfected using polyethyleneimine (PEI) in a stoichiometry of 6 μl of PEI per 1 μg of DNA for 6 h and were harvested 24 h after transfection. The following plasmids used in HEK293 cells have been described previously: FLAG-DVL3 wt[47], CK1ϵ wt[48], mCherry-FZD6 (ref. [37]), and dominant-negative CK1ϵ P3 (ref. [33]). The ECFP-DVL3 wt plasmid was made by Gateway Technology (via LR recombination according to the manufacturer’s instructions; Thermo Fisher Scientific, #11791020) from the donor plasmid pDONR221 DVL3 (DNASU, #FLH178665.01x) and the destination plasmid pdECFP (LMBP, #4548). The HA-DVL3 wt plasmid was made by Gateway Technology from the donor plasmid pDONR221 DVL3 (DNASU, #FLH178665.01x) and the destination plasmid pcDNA3.1 N-term HA (gift from Erich Nigg).
Cells were seeded on gelatin-coated coverslips in 24-well plates and were transfected the next day. Cells were fixed 24 h later in fresh 4% paraformaldehyde, permeabilized with 0.5% Triton X-100, blocked with PBS/BSA/Triton/Azide buffer (PBTA) [3% (wt/vol) BSA, 0.25% Triton, 0.01% NaN3] for 1 h, and incubated overnight with primary antibodies (in dilution 1:500) in PBTA at 4 °C. The next day, the coverslips were washed in PBS and incubated with secondary antibodies conjugated to Alexa Fluor 488 (Invitrogen A11001) or/and Alexa Fluor 594 (Invitrogen A11058) (all in dilution 1:1000), washed with PBS [in case of samples containing FLAG-DVL3 WT and derived variants stained with DAPI (1:5000)], and all coverslips were mounted on microscopic slides. Cells were then visualized on an Olympus IX51 fluorescent microscope using ×40 air or ×100 oil objectives and/or an Olympus Fluoview 500 confocal laser scanning microscope IX71 using ×100 oil objective. One hundred positive cells per experiment (n = 3) were analyzed and scored according to their phenotype into two/three categories (punctae/even); or non-recruited/partially/fully recruited for FZD6-dependent recruitment of DVL3. The antibodies used were as follows: anti-FLAG M2 (Sigma-Aldrich, #F1804), anti-DVL3 (Santa Cruz, #sc-8027), anti-CK1ɛ (Santa Cruz, #sc-6471), anti-RFP (Chromotek, #5h9) and anti-GFP (Fitzgerald, #20R-GR-011).

Molecule | TopFlash relative to DVL3 wt (= 1) (Wnt/β-catenin pathway; replicate of grid row r4) | TopFlash relative to DVL3 wt (= 1) (Wnt/β-catenin pathway; replicate of grid row r5) | TopFlash relative to DVL3 wt (= 1) (Wnt/β-catenin pathway; replicate of grid row r6) | TopFlash relative to DVL3 wt (= 1) (Wnt/β-catenin pathway; replicate of grid row r7) | TopFlash relative to DVL3 wt (= 1) (Wnt/β-catenin pathway; replicate of grid row r8) | TopFlash relative to DVL3 wt (= 1) (Wnt/β-catenin pathway; replicate of grid row r9) | TopFlash relative to DVL3 wt (= 1) (Wnt/β-catenin pathway; replicate of grid row r10) | TopFlash relative to DVL3 wt (= 1) (Wnt/β-catenin pathway; replicate of grid row r11) | TopFlash relative to DVL3 wt (= 1) (Wnt/β-catenin pathway; replicate of grid row r12) | TopFlash relative to DVL3 wt (= 1) (Wnt/β-catenin pathway; replicate of grid row r13) | TopFlash relative to DVL3 wt (= 1) (Wnt/β-catenin pathway; replicate of grid row r14) | Non-recruited (DVL3 membrane recruitment) ([1]; exp1) | Partially recruited (DVL3 membrane recruitment) ([1]; exp1) | Fully recruited (DVL3 membrane recruitment) ([1]; exp2) | Non-recruited (DVL3 membrane recruitment) ([1]; exp2) | Partially recruited (DVL3 membrane recruitment) ([1]; exp2) | Fully recruited (DVL3 membrane recruitment) ([1]; exp3) | Non-recruited (DVL3 membrane recruitment) ([1]; exp3) | Partially recruited (DVL3 membrane recruitment) ([1]; exp3) | Fully recruited (DVL3 membrane recruitment) ([1]; exp1)
B1 | 0.2512 | 0.4095 | 0.2391 | 0.3021 | 0.4946 | 0.4126 | 0.6059 | 0.4276 | 0.421 | 0.43 | 0.3266 | 79 | 19 | 11 | 54 | 35 | 16 | 68 | 16 | 
B2 | 0.8175 | 1.687 | 1.081 | 0.9973 | 0.619 | 0.5939 | 0.8497 | 1.052 | 1.009 | 1.108 | 1.265 | 52 | 37 | 20 | 49 | 31 | 10 | 60 | 30 | 11
